The target of assay [1] is T1, human CD73 on the cell surface (human, UniProt P21589 27-549).
T1 sequence: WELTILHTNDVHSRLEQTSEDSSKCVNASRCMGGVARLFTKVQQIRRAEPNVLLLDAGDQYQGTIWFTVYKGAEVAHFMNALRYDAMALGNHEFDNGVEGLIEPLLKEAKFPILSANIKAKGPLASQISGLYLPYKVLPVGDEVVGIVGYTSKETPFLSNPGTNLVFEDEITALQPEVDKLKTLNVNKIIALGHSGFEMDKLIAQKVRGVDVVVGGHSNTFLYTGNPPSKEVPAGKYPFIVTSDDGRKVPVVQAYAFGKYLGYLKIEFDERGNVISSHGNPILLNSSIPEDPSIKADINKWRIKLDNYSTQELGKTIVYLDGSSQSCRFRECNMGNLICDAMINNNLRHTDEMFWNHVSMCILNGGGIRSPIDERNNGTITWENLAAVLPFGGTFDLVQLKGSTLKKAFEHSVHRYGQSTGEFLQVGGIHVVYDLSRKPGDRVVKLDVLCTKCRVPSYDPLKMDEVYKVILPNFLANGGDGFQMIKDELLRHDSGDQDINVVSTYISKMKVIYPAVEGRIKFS
Kind of assay: cell-based or functional assay.

The target of assay [2] is T1, human CD73 on the cell surface. Nature of the assay: cell-based or functional assay. This is another data set of the same source.
Assay [3] has the same target. Kind of assay: flow cytometry on CHOK1-huCD73-3F4 cells, PE anti-human Fc. Here is the method: (§1) All the antigen-binding proteins were diluted to 30 μg/ml with PBS solution containing 1% BSA (1% BSA/PBS), diluted at 3-fold into 11 gradients and then added to a 96-well U-shaped plate at 20 μL/well, and negative control (1% BSA/PBS was added only) was set up simultaneously. The suspension of human CD73-expressing cells (CHOK1-huCD73-3F4, Huabo Biopharm) in the logarithmic growth phase were collected and centrifuged at 1000 rpm for 5 min, and the culture medium was discarded; then the cells were resuspended with 1% BSA/PBS to a viable cell density of 1×10⁶/mL, and then added into the 96-well U-shaped plate already added with anti-CD73 antigen-binding protein at 20 μL (2×10⁴ cells)/well for reaction at room temperature for 30 min. […] After the reaction, the cells in the 96-well U-shaped plate were resuspended with 1% BSA/PBS and centrifuged at 300 g for 3 min and the supernatant was discarded; after washing in this manner 3 times, and the cells were finally resuspended with 1% BSA/PBS at 100 μL/well, and the fluorescence intensity of the PE channel was measured with a flow cytometer (BD, #Canto II).
For orientation: A flow cytometer gives signals particle by particle.

Assay [4] concerns the target T2, human CD73 protein (ACRO Biosystems, Cat No. CD3-H52H7) (human, UniProt P21589 27-547).
T2 sequence: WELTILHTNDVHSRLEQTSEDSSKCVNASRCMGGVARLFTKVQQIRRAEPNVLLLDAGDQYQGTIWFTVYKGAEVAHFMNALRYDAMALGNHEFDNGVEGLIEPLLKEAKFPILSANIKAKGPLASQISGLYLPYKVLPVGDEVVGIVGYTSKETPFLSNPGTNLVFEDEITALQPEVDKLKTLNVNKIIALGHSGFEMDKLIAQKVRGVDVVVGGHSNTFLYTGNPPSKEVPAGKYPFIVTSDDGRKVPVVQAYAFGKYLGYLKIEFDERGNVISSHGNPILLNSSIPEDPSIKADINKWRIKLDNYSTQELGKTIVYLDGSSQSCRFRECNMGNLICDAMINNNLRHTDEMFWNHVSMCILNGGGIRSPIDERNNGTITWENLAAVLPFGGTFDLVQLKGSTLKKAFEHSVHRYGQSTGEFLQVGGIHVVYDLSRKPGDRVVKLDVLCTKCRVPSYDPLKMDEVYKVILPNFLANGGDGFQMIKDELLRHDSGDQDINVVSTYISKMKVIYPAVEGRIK
Nature of the assay: cell-based or functional assay.

The target of assay [5] is T3, rat CD73 (Novoprotein, Cat No. CB16) (rat, UniProt P21588 29-551, limits assumed).
T3 construct: Bought protein
T3 sequence (looked up): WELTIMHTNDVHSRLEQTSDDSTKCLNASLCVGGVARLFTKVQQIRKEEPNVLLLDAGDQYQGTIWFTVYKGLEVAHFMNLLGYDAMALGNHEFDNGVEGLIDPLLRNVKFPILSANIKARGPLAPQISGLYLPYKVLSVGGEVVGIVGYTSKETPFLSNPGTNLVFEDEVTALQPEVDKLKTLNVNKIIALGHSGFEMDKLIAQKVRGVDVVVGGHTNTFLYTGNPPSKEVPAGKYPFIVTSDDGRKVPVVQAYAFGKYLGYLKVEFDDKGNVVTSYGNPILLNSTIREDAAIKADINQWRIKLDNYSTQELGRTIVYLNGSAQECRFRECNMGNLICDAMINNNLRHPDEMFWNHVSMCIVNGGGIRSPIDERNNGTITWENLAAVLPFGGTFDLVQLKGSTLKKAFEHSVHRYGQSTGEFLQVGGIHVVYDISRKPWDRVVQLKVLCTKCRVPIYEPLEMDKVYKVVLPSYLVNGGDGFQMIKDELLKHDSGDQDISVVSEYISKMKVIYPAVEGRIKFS
Nature of the assay: SPR (Biacore T200), antibody captured on protein A chip. As for the experimental part:
(§2) The temperatures of the sample chamber and flow path were set at 25° C. The protein A chips separately captured the antigen-binding proteins as ligands, which were immobilized at about 100 RU. […] Ten mM Glycine, pH 1.5, was regenerated for 60 s at a flow rate of […] for multiple cycle kinetic detection. The binding rate constant (ka), dissociation rate constant (kd) and dissociation equilibrium rate constant (KD) were fitted using the Fit local mode of a 1:1 binding model.
On the technique in general: Surface plasmon resonance follows binding to a sensor surface in real time, without labels.

For assay [6], the target named is T4, mouse CD73/NT5E (ACRO Biosystems, Cat No. CD3-M52H9) (mouse, UniProt Q61503 29-551).
T4 construct: Bought protein
T4 sequence (looked up): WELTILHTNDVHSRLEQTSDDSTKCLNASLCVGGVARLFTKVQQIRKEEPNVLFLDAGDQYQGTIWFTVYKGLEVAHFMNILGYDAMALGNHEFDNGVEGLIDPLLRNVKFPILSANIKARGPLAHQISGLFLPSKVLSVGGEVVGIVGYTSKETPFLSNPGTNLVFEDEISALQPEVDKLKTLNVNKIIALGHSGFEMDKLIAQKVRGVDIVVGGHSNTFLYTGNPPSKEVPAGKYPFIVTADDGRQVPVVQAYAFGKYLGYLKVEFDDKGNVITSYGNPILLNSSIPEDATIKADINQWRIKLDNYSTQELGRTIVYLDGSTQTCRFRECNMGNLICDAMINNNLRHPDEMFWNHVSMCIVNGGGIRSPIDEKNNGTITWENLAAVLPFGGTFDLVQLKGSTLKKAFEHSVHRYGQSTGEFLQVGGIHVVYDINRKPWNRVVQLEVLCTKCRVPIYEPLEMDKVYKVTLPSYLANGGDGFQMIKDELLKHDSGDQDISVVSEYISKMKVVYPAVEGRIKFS
The assay is described as above. Here is the method: as §2

The target in assay [7] is T1, human CD73 on the cell surface. Nature of the assay: flow cytometry on CHOK1-huCD73-3F4 cells, PE anti-human Fc. As for the experimental part: as §1
This is another data set of the same source.

Assay [8] deals with T2, human CD73 protein (ACRO Biosystems, …). Nature of the assay: SPR (Biacore T200), antibody captured on protein A chip, CD73 as analyte, 1:1 model. Here is the method: The temperatures of the sample chamber and flow path were set at 25° C. The protein A chips separately captured the antigen-binding proteins as ligands, which were immobilized at about 100 RU. […] Ten mM Glycine, pH 1.5, was regenerated for 60 s at a flow rate of 50 μL/min for multiple cycle kinetic detection. The binding rate constant (ka), dissociation rate constant (kd) and dissociation equilibrium rate constant (KD) were fitted using the Fit local mode of a 1:1 binding model.

Like-named read-outs stand apart in the source and are kept apart here.

B1: 900222 (antibody, from another filing, V domains shown)
VH: QVQLVESGGGVVQPGRSLRLSCAASGFTFSNYGMHWVRQAPGKGLEWVAVILYDGSNKYYPDSVKGRFTISRDNSKNTLYLQMNSLRAEDTAVYYCARGGSSWYPDSFDIWGQGTMVTVSS
VL: DIQMTQSPSSLSASVGDRVTITCRASQGISSWLAWYQQKPEKAPKSLIYAASSLQSGVPSRFSGSGSGTDFTLTISSLQPEDFATYYCQQYNSYPLTFGGGTKVEIKR
In assay [1], B1 registered an Endocytosis efficiency (%) of 44.2%.

B2: 900565 (antibody, V domains shown)
VH: QAYLQQSGAELVRPGASVKMSCKASGYTFTSYNMHWVKQTPRQGLEWIGAIYPGNGDTSYNQKFKGKATLNVDKSSSTAYMQLSSLTSEDSAVYFCARWGYGSNYAWYFDIWGTGTTVTVSS
VL: DIQMTQSPASLSASVGETVTITCRTSGNIHNYLVWYQQKQGKSPQLLVFNAKTLADGVPSRFSGSGSGTQYSLKINSLQPEDFGSYYCQHFWSTPFTFGSGTKLEIK
notes: Chimeric antibody derived from hybridoma 115B10; it was detected with anti-human Fc
By EC50 is commonly meant the midpoint of the concentration-response curve. Low values mean an effect from little substance, high ones a need for much substance. Regarding B2, in assay [2], the “EC50(µg/mL), inhibition of enzyme activity of CD73 on CHOK1-huCD73-3F4 cells” value amounted to 1.62 µg/mL. This molecule also came in with an EC50 in assay [3] of 2.14 µg/mL.

B3: 900694 (antibody, V domains shown)
VH: EVQLVESGGGLVKPGGSLRLSCAASGFTFSKYAMSWVRQAPGKGLEWVAEISSGGGYINYPDTVTGRFTISRDNAKNSLYLQMNSLRAEDTAVYYCARAIYYYGSSYNYYAMDYWGQGTTVTVSS
VL: DIQMTQSPSSLSASVGDRVTITCRASQDVGTAEAWYQQKPGKAPKLLIYWASTRHTGVPDRFSGSGSGTDFTLTISSLQPEDFATYYCQQYSSYPLTFGQGTKLEIK
notes: Constant regions are not restated; it was detected with anti-human Fc and captured on protein A
For orientation: Kd means the free concentration of one partner at which half of the binding sites on the other are occupied at equilibrium, for simple one-to-one binding. Higher therefore signals a looser complex. By koff is commonly meant the first-order rate constant of dissociation. As usually defined, the kon is the rate constant with which the complex forms. Lower therefore signals slower complex formation. For B3, in assay [4], the “EC50(µg/mL), inhibition of recombinant CD73 (CellTiter-Glo)” value turned out to be 0.681 µg/mL. For the same molecule, the binding result in assay [5] is “no binding (tested: up to 50 nM analyte)”. Besides, the binding result in assay [6] was “no binding (tested: up to 50 nM analyte)”. In addition, in assay [7], the EC50 worked out at 0.646 µg/mL. In assay [8], this molecule yielded a Kd of 1.5 nM, a dissociation rate constant (koff) of 0.000493 s⁻¹ and a kon of 329000 M⁻¹ s⁻¹.
